± gives the uncertainty stated by the source.
Assay: self-splicing fitness, log relative to wild type (ln ratio); higher = more splicing; Tetrahymena group I intron in knt gene, E. coli kanamycin selection, DiMSum; sequences stand for … in CUCUCU…GGAGGGAAAAGUUAUCAGGCAUGCACCUGGUAGCUAGUCUUUAAACCAAUAGAUUGCAUCGGUUUAAAAGGCAAGACCGUCAAAUUGCGGGAAAGGGGUCAACAGCCGUUCAGUACCAAGUCUCAGGGGAAACUUUGAGAUGGCCUUGCAAAGGGUAUGGUAAUAAGCUGACGGACAUGGUCCUAACCACGCAGCCAAGUCCUAAGUCAACAGAUCUUCUGUUGAUAUGGAUGCAGUUCACAGACUAAAUGUCGGUCGGGGAAGAUGUAUUCUUCUCAUAAGAUAUAGUCGGACCUCUCCUUAAUGGGAGCUAGCGGAUGAAGUGAUGCAACACUGGAGCCGCUGGGAACUAAUUUGUAUGCGAAAGUAUAUUGAUUAGUUUUGGAGUACUCGUGGUCG
Procedure, shortened: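 Colonies from six replicate transformations of E. coli BL21(DE3) were pooled and amplicon-sequenced on an Illumina HiSeq 2500. The library placed an intron with all eight P1ex-region nucleotides randomised inside the knt kanamycin-resistance gene on pET-22b(+), and cells grew overnight at 37°C or 30°C on LB agar with or without 25 μg/mL kanamycin (plus 100 μg/mL carbenicillin, 50 μM IPTG, 0.2% rhamnose). Fitness is the DiMSum error-weighted combination of wild-type-normalised replicate fold changes, kanamycin versus none.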

| Sequence | self-splicing fitness (ln) (30 °C) | self-splicing fitness (ln) (37 °C) |
| --- | --- | --- |
| UCCUAGCAAUAUUACGUGCC | -2.26 ± 0.33 | -2.02 ± 0.39 |
| UCCUAGCAAUAUUACGUUCU | -3.14 ± 0.14 | -2.51 ± 0.13 |
| UCCUAGCAAUAUUACGUUGG | -3.74 ± 0.27 | -2.35 ± 0.2 |
| UCCUAGCAAUAUUACGUUGU | – | -1.99 ± 0.29 |
| UCGAAGCAAUAUUACGACUA | -1.05 ± 0.16 | -0.97 ± 0.13 |
| UCGAAGCAAUAUUACGAGAG | -3.06 ± 0.43 | -1.91 ± 0.25 |
| UCGAAGCAAUAUUACGAGCA | -1.77 ± 0.14 | 0.162 ± 0.14 |
| UCGAAGCAAUAUUACGAGCG | -1.04 ± 0.078 | -0.114 ± 0.094 |
| UCGAAGCAAUAUUACGAUUA | -1.19 ± 0.12 | -0.794 ± 0.11 |
| UCGAAGCAAUAUUACGCAAC | -2.37 ± 0.42 | – |
| UCGAAGCAAUAUUACGCAGC | -2.71 ± 0.27 | -2.18 ± 0.23 |
| UCGAAGCAAUAUUACGCAUG | -1.2 ± 0.085 | -0.698 ± 0.1 |
| UCGAAGCAAUAUUACGCCAG | -2.24 ± 0.25 | -2.09 ± 0.42 |
| UCGAAGCAAUAUUACGCCCA | -1.84 ± 0.32 | -0.793 ± 0.25 |
| UCGAAGCAAUAUUACGCCUA | – | -1.71 ± 0.42 |
| UCGAAGCAAUAUUACGCGCG | -1.26 ± 0.1 | -0.735 ± 0.12 |
| UCGAAGCAAUAUUACGCUGU | -2.33 ± 0.21 | -2.06 ± 0.33 |
| UCGAAGCAAUAUUACGCUUC | -3.77 ± 0.25 | -2.38 ± 0.3 |
| UCGAAGCAAUAUUACGGCAA | -1.81 ± 0.19 | -1.72 ± 0.17 |
| UCGAAGCAAUAUUACGGCCG | -0.31 ± 0.18 | 0.0326 ± 0.34 |
| UCGAAGCAAUAUUACGGCGU | -0.22 ± 0.087 | -0.249 ± 0.12 |
| UCGAAGCAAUAUUACGGGCU | -4.18 ± 0.39 | -2.67 ± 0.35 |
| UCGAAGCAAUAUUACGGUAG | -1.4 ± 0.1 | -1.61 ± 0.11 |
| UCGAAGCAAUAUUACGGUCU | -2.6 ± 0.14 | -0.844 ± 0.13 |
| UCGAAGCAAUAUUACGGUUA | -0.579 ± 0.12 | -0.97 ± 0.097 |

| Sequence | self-splicing fitness (ln) (30 °C) | self-splicing fitness (ln) (37 °C) |
| --- | --- | --- |
| UCGAAGCAAUAUUACGUCAU | -2.62 ± 0.15 | -2.58 ± 0.21 |
| UCGAAGCAAUAUUACGUGCU | -3.75 ± 0.18 | -3.77 ± 0.31 |
| UCGAAGCAAUAUUACGUGGU | -3.51 ± 0.18 | -2.88 ± 0.24 |
| UCGAAGCAAUAUUACGUUGG | -2.99 ± 0.12 | -1.86 ± 0.15 |
| UCGAAGCAAUAUUACGUUGU | -2.09 ± 0.19 | -2.33 ± 0.2 |
| UCGCAGCAAUAUUACGAAGA | -2.23 ± 0.13 | -1.43 ± 0.15 |
| UCGCAGCAAUAUUACGAAGU | -3.51 ± 0.2 | -2.53 ± 0.15 |
| UCGCAGCAAUAUUACGAGGU | -3.14 ± 0.25 | -2.85 ± 0.19 |
| UCGCAGCAAUAUUACGAUCA | -1.27 ± 0.15 | -1.18 ± 0.15 |
| UCGCAGCAAUAUUACGCAAC | – | -2.8 ± 0.17 |
| UCGCAGCAAUAUUACGCACU | -2.21 ± 0.18 | -0.563 ± 0.2 |
| UCGCAGCAAUAUUACGCCAG | -2.63 ± 0.084 | -1.72 ± 0.1 |
| UCGCAGCAAUAUUACGCGCU | -1.23 ± 0.12 | -1.19 ± 0.21 |
| UCGCAGCAAUAUUACGCGUU | -4.2 ± 0.27 | -2.38 ± 0.13 |
| UCGCAGCAAUAUUACGCUAG | -4.54 ± 0.25 | -2.18 ± 0.2 |
| UCGCAGCAAUAUUACGCUGG | -1.76 ± 0.16 | -2 ± 0.21 |
| UCGCAGCAAUAUUACGCUUC | -1.8 ± 0.34 | -1.68 ± 0.44 |
| UCGCAGCAAUAUUACGCUUG | -1.93 ± 0.14 | -1.83 ± 0.15 |
| UCGCAGCAAUAUUACGGAAG | -2.74 ± 0.25 | -1.74 ± 0.22 |
| UCGCAGCAAUAUUACGGAGA | -2.75 ± 0.13 | -1.02 ± 0.1 |
| UCGCAGCAAUAUUACGGAUC | -3.82 ± 0.35 | – |
| UCGCAGCAAUAUUACGGCUU | -1.16 ± 0.08 | 0.404 ± 0.12 |
| UCGCAGCAAUAUUACGGGUU | -2.63 ± 0.14 | -2.38 ± 0.16 |
| UCGCAGCAAUAUUACGGUUA | -0.15 ± 0.086 | -0.398 ± 0.087 |
| UCGCAGCAAUAUUACGGUUU | -3.17 ± 0.12 | -1.72 ± 0.12 |

| Sequence | self-splicing fitness (ln) (30 °C) | self-splicing fitness (ln) (37 °C) |
| --- | --- | --- |
| UCGCAGCAAUAUUACGUACA | -1.62 ± 0.15 | -0.509 ± 0.12 |
| UCGCAGCAAUAUUACGUAGA | -0.804 ± 0.065 | -0.0374 ± 0.079 |
| UCGCAGCAAUAUUACGUCUC | – | -1.97 ± 0.27 |
| UCGCAGCAAUAUUACGUCUG | – | -1.97 ± 0.18 |
| UCGCAGCAAUAUUACGUUCU | -3.58 ± 0.18 | -2.31 ± 0.11 |
| UCGCAGCAAUAUUACGUUGU | -2.56 ± 0.2 | -1.73 ± 0.21 |
| UCGCAGCAAUAUUACGUUUA | -1.78 ± 0.12 | -1.11 ± 0.11 |
| UCGGAGCAAUAUUACGAAUU | -2.9 ± 0.26 | -2.69 ± 0.28 |
| UCGGAGCAAUAUUACGAGUG | -2.47 ± 0.18 | -2.48 ± 0.19 |
| UCGGAGCAAUAUUACGAUCA | – | -1.23 ± 0.48 |
| UCGGAGCAAUAUUACGAUGA | -0.946 ± 0.15 | -1.11 ± 0.16 |
| UCGGAGCAAUAUUACGAUUC | -0.553 ± 0.26 | -0.938 ± 0.24 |
| UCGGAGCAAUAUUACGCGCA | -0.975 ± 0.23 | – |
| UCGGAGCAAUAUUACGCGUA | -1.73 ± 0.26 | -1.38 ± 0.21 |
| UCGGAGCAAUAUUACGCGUC | -2.14 ± 0.47 | – |
| UCGGAGCAAUAUUACGCUAU | -3.09 ± 0.34 | -2.48 ± 0.36 |
| UCGGAGCAAUAUUACGGGGA | -1.76 ± 0.2 | -1.13 ± 0.19 |
| UCGGAGCAAUAUUACGUAAA | -3.16 ± 0.31 | -1.55 ± 0.29 |
| UCGGAGCAAUAUUACGUCAA | – | -2.12 ± 0.38 |
| UCGGAGCAAUAUUACGUUUA | -2.32 ± 0.29 | -2.35 ± 0.42 |
| UCGUAGCAAUAUUACGAGAA | -2.57 ± 0.49 | -1.61 ± 0.41 |
| UCGUAGCAAUAUUACGAGUG | -3.62 ± 0.32 | -3.09 ± 0.3 |
| UCGUAGCAAUAUUACGAGUU | -3.76 ± 0.25 | -2.5 ± 0.2 |
| UCGUAGCAAUAUUACGCGGC | – | -2.15 ± 0.46 |
| UCGUAGCAAUAUUACGCGGG | -3.63 ± 0.37 | -0.254 ± 0.15 |

| Sequence | self-splicing fitness (ln) (30 °C) | self-splicing fitness (ln) (37 °C) |
| --- | --- | --- |
| UCGUAGCAAUAUUACGCUAU | -2.37 ± 0.45 | -2.88 ± 0.4 |
| UCGUAGCAAUAUUACGCUCG | -1.9 ± 0.16 | -1.2 ± 0.23 |
| UCGUAGCAAUAUUACGCUUG | -2.53 ± 0.17 | -0.409 ± 0.14 |
| UCGUAGCAAUAUUACGCUUU | -2.74 ± 0.14 | -2.4 ± 0.15 |
| UCGUAGCAAUAUUACGGCUC | – | -1.44 ± 0.24 |
| UCGUAGCAAUAUUACGGGGC | -2.26 ± 0.2 | -2.55 ± 0.27 |
| UCGUAGCAAUAUUACGGGGU | -3.35 ± 0.23 | -2.35 ± 0.25 |
| UCGUAGCAAUAUUACGGGUU | -3.23 ± 0.18 | -2.38 ± 0.23 |
| UCGUAGCAAUAUUACGUCAG | -3.66 ± 0.48 | -1.89 ± 0.29 |
| UCGUAGCAAUAUUACGUCCU | -2.04 ± 0.21 | -1.63 ± 0.31 |
| UCGUAGCAAUAUUACGUUGG | -2.59 ± 0.17 | -0.973 ± 0.17 |
| UCUAAGCAAUAUUACGAACU | -2.55 ± 0.11 | -2.26 ± 0.15 |
| UCUAAGCAAUAUUACGAAGA | -1.29 ± 0.14 | -0.678 ± 0.13 |
| UCUAAGCAAUAUUACGAGUC | -3.41 ± 0.3 | -2.93 ± 0.3 |
| UCUAAGCAAUAUUACGCAUG | -1.88 ± 0.095 | -2.07 ± 0.12 |
| UCUAAGCAAUAUUACGCCAA | -1.47 ± 0.32 | -0.954 ± 0.23 |
| UCUAAGCAAUAUUACGCCAU | -3.76 ± 0.46 | -2.37 ± 0.42 |
| UCUAAGCAAUAUUACGCCGC | -2.69 ± 0.29 | – |
| UCUAAGCAAUAUUACGCCUC | -3.67 ± 0.35 | -2.98 ± 0.47 |
| UCUAAGCAAUAUUACGCGAU | -4.31 ± 0.33 | -3.83 ± 0.36 |
| UCUAAGCAAUAUUACGCGCC | – | -2.67 ± 0.38 |
| UCUAAGCAAUAUUACGCGGA | -2.69 ± 0.3 | -2.47 ± 0.24 |
| UCUAAGCAAUAUUACGCUGG | -2.53 ± 0.12 | -2.92 ± 0.24 |
| UCUAAGCAAUAUUACGGCUG | -0.983 ± 0.21 | -1.68 ± 0.24 |
| UCUAAGCAAUAUUACGGGCC | -3.14 ± 0.33 | -2.09 ± 0.33 |

— the supplement of paper PMC7877785
